Assay results taken from patent US20200093922A1 (AGENCY FOR SCIENCE TECHNOLOGY AND RESEARCH, published 2020).

Experiments:
[1] = target: T1, murine PD-L1 coupled to human Fc (murine, UniProt Q9EP73 19-238, limits assumed); assay: ELISA on coated murine PD-L1-Fc, Fab detected with anti-human Fab-HRP, absorbance 450-670 nm
T1 construct: also called murine PD-L1-Fc; mouse PD-L1 coupled to Fc; not shown: human Fc
Protocol: After 90 minutes at room temperature under agitation and extensive washes, a goat anti-human Fab antibody coupled to HRP was added. One hour later, plates were washed and TMB substrate added. The reaction was stopped with 1M HCl and optical density measured at 450 nm with a reference at 670 nm.

[2] = target: T2, biotinylated murine PD-L1 (murine, UniProt Q9EP73 19-238, limits assumed, biotinylated (site not stated)); assay: blocking ELISA: biotinylated murine PD-L1 pre-incubated with Fab, then added to coated murine PD-1-Fc (blocked partner), streptavidin-HRP
T2 sequence (Q9EP73 19-238 limits assumed): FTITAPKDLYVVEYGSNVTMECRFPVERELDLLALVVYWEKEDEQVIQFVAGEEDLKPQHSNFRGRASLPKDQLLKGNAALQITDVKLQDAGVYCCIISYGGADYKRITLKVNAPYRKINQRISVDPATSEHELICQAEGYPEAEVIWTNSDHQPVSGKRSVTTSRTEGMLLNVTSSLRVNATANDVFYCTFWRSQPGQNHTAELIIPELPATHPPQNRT

biotinylated human PD-L1 [3] = target: T3, biotinylated human PD-L1 (human, UniProt Q9NZQ7 19-238, limits assumed, biotinylated (site not stated)); assay: blocking ELISA: biotinylated human PD-L1 pre-incubated with Fab, then added to coated human PD-1-Fc (blocked partner), streptavidin-HRP
T3 sequence (Q9NZQ7 19-238 limits assumed): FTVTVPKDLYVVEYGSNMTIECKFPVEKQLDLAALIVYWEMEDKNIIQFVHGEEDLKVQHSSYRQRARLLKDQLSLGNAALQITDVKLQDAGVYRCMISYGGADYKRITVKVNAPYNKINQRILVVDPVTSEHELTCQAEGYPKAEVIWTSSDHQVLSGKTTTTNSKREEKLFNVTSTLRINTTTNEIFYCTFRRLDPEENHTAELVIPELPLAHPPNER

[4] = target: T4, PD-L1 on MDA-MB-231 human breast cancer cells (human, UniProt Q9NZQ7 19-290); assay: flow cytometry on MDA-MB-231 cells expressing PD-L1, MFI against IgG1 (nM)
T4 construct: whole, on cells; also called cells expressing PD-L1
T4 sequence (Q9NZQ7 19-290): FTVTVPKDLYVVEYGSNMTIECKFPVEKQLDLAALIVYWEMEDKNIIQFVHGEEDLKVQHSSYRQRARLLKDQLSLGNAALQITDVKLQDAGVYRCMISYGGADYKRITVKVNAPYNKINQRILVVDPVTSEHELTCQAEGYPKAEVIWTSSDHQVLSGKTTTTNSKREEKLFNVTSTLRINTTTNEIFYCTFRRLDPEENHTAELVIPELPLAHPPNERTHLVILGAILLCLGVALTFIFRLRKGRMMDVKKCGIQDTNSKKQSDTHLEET

[5] = target: T5, human PD-L1 expressed on transfected HEK 293 cells (human, UniProt Q9NZQ7 19-290); assay: flow cytometry blocking assay: antibody mixed with human PD-1-PE (blocked partner), added to HEK293 cells transfected with human PD-L1
T5 construct: whole, on cells; also called PD-L1 transfected cells; HEK293-6E cells transfected with human PD-L1
T5 sequence (Q9NZQ7 19-290): as above
From the text: Cells were washed 3 times with PBS and all data were collected on a BD FACSCanto II (BD Bioscience) and analysed on BD FACSDiva software (BD Bioscience).

[6] = target: T2, biotinylated murine PD-L1; assay: blocking ELISA of murine PD-L1 binding to murine PD-1 (blocked partner), Example 3
biotinylated human PD-L1 [7] = target: T3, biotinylated human PD-L1; assay: ELISA: antibody coated at 2 ug/mL, biotinylated human PD-L1 titrated (x axis Human PD-L1, nM), streptavidin-HRP
Protocol: Binding was measured by ELISA. Antibodies were coated onto maxisorp plates at 2 μg/mL in coating buffer and incubated overnight at 4° C. The next day, plates were washed with wash buffer (PBS+0.05% Tween-20), and blocker with casein for 1 hour, at room temperature. Plates were then washed again using wash buffer. […] Plates were then washed again using wash buffer. […] Plates were then washed again using wash buffer. Finally, TMB was added to develop the ELISA; TMB conversion by HRP was stopped using 1M H-Cl.

human PD-L2 = target: T6, human PD-L2 (human, UniProt Q9BQ51 20-220, limits assumed); assay: ELISA on coated antigen (sheet label huPD-L2-Fc)
T6 construct: also called hu PD-L2
T6 sequence (looked up): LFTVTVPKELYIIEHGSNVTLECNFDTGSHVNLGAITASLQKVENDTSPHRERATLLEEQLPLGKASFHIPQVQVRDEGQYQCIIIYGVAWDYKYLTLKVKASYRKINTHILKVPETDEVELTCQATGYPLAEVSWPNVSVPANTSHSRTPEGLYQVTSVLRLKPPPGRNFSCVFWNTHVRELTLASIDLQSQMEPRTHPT

[8] = target: PD-L1 (blocking ELISA of Example 13) (Homo sapiens (Human), UniProt Q9NZQ7 19-238); assay: blocking ELISA: antibody pre-incubated with PD-L1, added to coated PD-1 (blocked partner), PD-1-bound PD-L1 detected
Sequence of PD-L1 (blocking ELISA of Example 13) (Q9NZQ7 19-238 limits assumed): as the sequence (Q9NZQ7 19-238 limits assumed) above

human CTLA-4 = target: T7, human CTLA-4 (human, UniProt P16410 36-162, limits assumed); assay: ELISA on coated antigen (sheet label huCTL-A4)
T7 construct: also called hu CTL-A4
T7 sequence (P16410 36-162 limits assumed): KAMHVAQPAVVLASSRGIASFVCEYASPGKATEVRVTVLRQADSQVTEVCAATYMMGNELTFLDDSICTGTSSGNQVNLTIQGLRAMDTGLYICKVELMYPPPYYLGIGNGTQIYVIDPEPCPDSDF

human BTLA = target: T8, human BTLA (human, UniProt Q7Z6A9 31-151, limits assumed); assay: ELISA on coated antigen (sheet label huBTLA-Fc)
T8 construct: also called hu BLTA
T8 sequence (Q7Z6A9 31-151 limits assumed): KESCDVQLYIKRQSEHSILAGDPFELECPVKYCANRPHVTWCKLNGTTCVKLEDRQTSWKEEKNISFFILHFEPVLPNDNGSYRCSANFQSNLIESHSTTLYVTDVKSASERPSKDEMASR

human TIM-3 = target: T9, human TIM-3 (human, UniProt Q8TDQ0 22-200, limits assumed); assay: ELISA on coated antigen (sheet label huTIM-3-Fc)
T9 construct: also called hu TIM-3

human CD28 = target: T10, human CD28 (human, UniProt P10747 19-152, limits assumed); assay: ELISA on coated antigen (sheet label huCD28-Fc)
T10 construct: also called hu CD28

human ICOS = target: T11, human ICOS (human, UniProt Q9Y6W8 21-140, limits assumed); assay: ELISA on coated antigen (sheet label huICOS-Fc)
T11 construct: also called hu ICOS
T11 sequence (looked up): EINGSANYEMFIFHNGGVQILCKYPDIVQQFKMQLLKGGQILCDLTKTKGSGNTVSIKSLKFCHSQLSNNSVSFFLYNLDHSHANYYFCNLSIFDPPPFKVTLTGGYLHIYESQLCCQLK

biotinylated human PD-L1 [9] = target: T3, biotinylated human PD-L1; assay: avidity ELISA: biotinylated human PD-L1 at 0.2 ug/mL on neutravidin, antibody titrated (x axis IgG, nM), anti-human Fc-HRP
Protocol: Neutravidin was coated onto maxisorp plates at 2 μg/mL in coating buffer and incubated overnight at 4° C. The next day, plates were washed with wash buffer (PBS+0.05% Tween-20), and blocker with casein for 1 hour, at room temperature. Plates were then washed again using wash buffer. […] Plates were then washed again using wash buffer. The different antibodies were then added at various concentrations, and incubated for 1 hour at room temperature. Plates were then washed again using wash buffer. Anti-human Fc-HRP was then added and incubated for 1 hour at room temperature. Plates were then washed again using wash buffer. Finally, TMB was added to develop the ELISA; TMB conversion by HRP was stopped using 1M H-Cl.

human LAG-3 = target: T12, human LAG-3 (human, UniProt P18627 23-450, limits assumed); assay: ELISA on coated antigen (sheet label huLAG-3-Fc)
T12 construct: also called hu LAG-3
T12 sequence (looked up): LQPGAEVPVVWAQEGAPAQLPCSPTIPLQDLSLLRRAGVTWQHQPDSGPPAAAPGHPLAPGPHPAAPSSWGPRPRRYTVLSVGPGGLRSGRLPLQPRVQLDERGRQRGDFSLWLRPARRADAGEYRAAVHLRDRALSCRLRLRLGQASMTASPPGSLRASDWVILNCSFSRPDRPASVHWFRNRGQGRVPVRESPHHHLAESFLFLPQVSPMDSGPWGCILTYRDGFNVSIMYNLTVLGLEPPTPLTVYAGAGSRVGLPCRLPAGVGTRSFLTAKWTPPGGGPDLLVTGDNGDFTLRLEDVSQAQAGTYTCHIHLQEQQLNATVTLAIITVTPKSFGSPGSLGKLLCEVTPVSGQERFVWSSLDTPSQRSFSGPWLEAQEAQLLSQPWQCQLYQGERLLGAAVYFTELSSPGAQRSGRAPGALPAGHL

[10] = target: T13, human PD-1 (ELISA antigen of Example 8) (human, UniProt Q15116 25-167, limits assumed); assay: ELISA on coated antigen (sheet label huPD-1-Fc)
T13 construct: also called hu PD-1
T13 sequence (Q15116 25-167 limits assumed): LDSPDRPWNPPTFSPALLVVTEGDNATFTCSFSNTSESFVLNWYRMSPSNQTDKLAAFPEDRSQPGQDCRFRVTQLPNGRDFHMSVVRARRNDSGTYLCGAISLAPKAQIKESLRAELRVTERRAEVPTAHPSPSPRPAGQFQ

T1 sequence (Q9EP73 19-238 limits assumed): as the sequence (Q9EP73 19-238 limits assumed) above

B1: anti-PD-L1 antibody clone C2, Fab format (Fab, V domains shown)
VH: QVQLQQSGAEVKKPGSSVKVSCKASGGTFSSYAISWVRQAPGQGLEWMGRIIPILGIANYAQKFQGRVTITADKSTSTAYMELSSLRSEDTAVYYCARGGSYGSLYAFDIWGQGTTVTVSS
VL: SYELTQPPSVSVAPGKTTRITCGGDNIGRKSVHWYQQRPGQAPLLLVYDDGDRPSGIPDRFSGSNSGNTATLTISGTQAMDEADYYCQAWDSTVVFGGGTRLTVL
notes: Tested as Fab
- binding result [1]: binds
- binding result [2]: binds
- IC50 (read off the curve) (biotinylated human PD-L1 [3]): ~50 nM

B2: anti-PD-L1 antibody clone C4, Fab format (Fab, V domains shown)
VH: QVQLQQSGAEVKKPGSSVKVSCKASGGTFSSYAISWVRQAPGQGLEWMGRIIPILGIANYAQKFQGRVTITADKSTSTAYMELSSLRSEDTAVYYCARGGYGGNSLYAFDIWGQGTMVTVSS
VL: QSVVTQPPSVSAAPGQKVTISCSGSSSNIGNNYVSWYQQLPGTAPKLLIYDNNERLSGIPDRFSGSKSGTSATLGISGLQTGDEADYYCGTWDSSLSVVVFGGGTKLTVL
notes: Tested as Fab
- binding result [1]: binds
- binding result [2]: binds
- IC50 (read off the curve) (biotinylated human PD-L1 [3]): ~50 nM

B3: anti-PD-L1 antibody H12 in IgG1 format (antibody, V domains shown)
VH: EVQLVQSGAEVKKPGASVKVSCKASGGTFSSYAISWVRQAPGQGLEWMGRIIPILGIANYAQKFQGRVTITADKSTSTAYMELSSLRSEDTAVYYCARSGHGYSYGAFDYWGQGTL
VL: QSVLTQPPSVSGAPGQRVTISCTGSSSNIGAGYDVHWYQQLPGTAPKLLIYGNSNRPSGVPDRFSGSKSGTSASLAITGLQAEDEADYYCQSYDSSLSGSYVVFGGGTKLTVL
notes: IgG1; also called H12 (IgG1); H12-IgG1
- EC50 (read off the curve) [4]: ~200 nM
- IC50 (read off the curve) [5]: ~8 nM
- IC50 (read off the curve) [6]: ~1 nM

B4: anti-PD-L1 antibody H12 in IgG4 format (antibody, V domains shown)
VH: EVQLVQSGAEVKKPGASVKVSCKASGGTFSSYAISWVRQAPGQGLEWMGRIIPILGIANYAQKFQGRVTITADKSTSTAYMELSSLRSEDTAVYYCARSGHGYSYGAFDYWGQGTL
VL: QSVLTQPPSVSGAPGQRVTISCTGSSSNIGAGYDVHWYQQLPGTAPKLLIYGNSNRPSGVPDRFSGSKSGTSASLAITGLQAEDEADYYCQSYDSSLSGSYVVFGGGTKLTVL
notes: IgG4; also called H12-IgG4
- IC50 (read off the curve) [5]: ~8 nM

B5: anti-PD-L1 antibody H12_GL in IgG1 format (antibody, V domains shown)
VH: QVQLVQSGAEVKKPGSSVKVSCKASGGTFSSYAISWVRQAPGQGLEWMGRIIPILGIANYAQKFQGRVTITADKSTSTAYMELSSLRSEDTAVYYCARSGHGYSYGAFDYWGQGTLVTVSS
VL: QSVLTQPPSVSGAPGQRVTISCTGSSSNIGAGYDVHWYQQLPGTAPKLLIYGNSNRPSGVPDRFSGSKSGTSASLAITGLQAEDEADYYCQSYDSSLSGSYVVFGGGTKLTVL
notes: H12 with its framework reverted to germline-like; IgG1; also called H12_GL-IgG1
- IC50 (read off the curve) [5]: ~8 nM

B6: anti-PD-L1 antibody H12_GL in IgG4 format (antibody, V domains shown)
VH: QVQLVQSGAEVKKPGSSVKVSCKASGGTFSSYAISWVRQAPGQGLEWMGRIIPILGIANYAQKFQGRVTITADKSTSTAYMELSSLRSEDTAVYYCARSGHGYSYGAFDYWGQGTLVTVSS
VL: QSVLTQPPSVSGAPGQRVTISCTGSSSNIGAGYDVHWYQQLPGTAPKLLIYGNSNRPSGVPDRFSGSKSGTSASLAITGLQAEDEADYYCQSYDSSLSGSYVVFGGGTKLTVL
notes: IgG4; also called H12_GL-IgG4
- IC50 (read off the curve) [5]: ~8 nM

B7: anti-PD-L1 antibody H12 (format not stated) (antibody, V domains shown)
VH: EVQLVQSGAEVKKPGASVKVSCKASGGTFSSYAISWVRQAPGQGLEWMGRIIPILGIANYAQKFQGRVTITADKSTSTAYMELSSLRSEDTAVYYCARSGHGYSYGAFDYWGQGTL
VL: QSVLTQPPSVSGAPGQRVTISCTGSSSNIGAGYDVHWYQQLPGTAPKLLIYGNSNRPSGVPDRFSGSKSGTSASLAITGLQAEDEADYYCQSYDSSLSGSYVVFGGGTKLTVL
- EC50 (read off the curve) (biotinylated human PD-L1 [7]): ~0.4 nM
- binding result (human PD-L2): no binding
- IC50 (read off the curve) [8]: ~2 nM
- binding result (human CTLA-4): no binding
- binding result (human BTLA): no binding
- binding result (human TIM-3): no binding
- binding result (human CD28): no binding
- binding result (human ICOS): no binding
- EC50 (read off the curve) (biotinylated human PD-L1 [9]): ~0.1 nM
- binding result (human LAG-3): no binding
- binding result [10]: no binding

B8: anti-PD-L1 antibody C4 (format not stated) (antibody, V domains shown)
VH: QVQLQQSGAEVKKPGSSVKVSCKASGGTFSSYAISWVRQAPGQGLEWMGRIIPILGIANYAQKFQGRVTITADKSTSTAYMELSSLRSEDTAVYYCARGGYGGNSLYAFDIWGQGTMVTVSS
VL: QSVVTQPPSVSAAPGQKVTISCSGSSSNIGNNYVSWYQQLPGTAPKLLIYDNNERLSGIPDRFSGSKSGTSATLGISGLQTGDEADYYCGTWDSSLSVVVFGGGTKLTVL
- EC50 (read off the curve) (biotinylated human PD-L1 [7]): ~0.8 nM
- IC50 (read off the curve) [8]: ~2 nM
- EC50 (read off the curve) (biotinylated human PD-L1 [9]): ~1 nM

B9: anti-PD-L1 antibody C4 in IgG1 format (antibody, V domains shown)
VH: QVQLQQSGAEVKKPGSSVKVSCKASGGTFSSYAISWVRQAPGQGLEWMGRIIPILGIANYAQKFQGRVTITADKSTSTAYMELSSLRSEDTAVYYCARGGYGGNSLYAFDIWGQGTMVTVSS
VL: QSVVTQPPSVSAAPGQKVTISCSGSSSNIGNNYVSWYQQLPGTAPKLLIYDNNERLSGIPDRFSGSKSGTSATLGISGLQTGDEADYYCGTWDSSLSVVVFGGGTKLTVL
notes: also called C4 IgG1
- EC50 (read off the curve) [4]: ~200 nM
